For 1 substance, Kd results are on record in patent publication US20230104217A1.

Assay [1] deals with Human IL-2 R alpha protein, His Tag (Acro, ILA-H52H9) (human) (UniProt P01589). Put plainly: BLI. Particulars: ligand.
Assay [2] addresses Human IL-2 R beta protein, His-Tag (Acro, CD2-H5221) (human) (UniProt P14784). Nature of the assay: BLI. Particulars: ligand.
UniProt P14784, sequence (P14784 27-239): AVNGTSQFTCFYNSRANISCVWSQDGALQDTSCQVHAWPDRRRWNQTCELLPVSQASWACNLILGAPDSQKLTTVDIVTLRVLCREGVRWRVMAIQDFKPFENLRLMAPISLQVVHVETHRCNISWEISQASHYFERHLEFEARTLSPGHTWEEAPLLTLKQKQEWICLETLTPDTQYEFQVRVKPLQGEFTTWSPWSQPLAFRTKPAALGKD

UniProt P01589, sequence (P01589 22-213): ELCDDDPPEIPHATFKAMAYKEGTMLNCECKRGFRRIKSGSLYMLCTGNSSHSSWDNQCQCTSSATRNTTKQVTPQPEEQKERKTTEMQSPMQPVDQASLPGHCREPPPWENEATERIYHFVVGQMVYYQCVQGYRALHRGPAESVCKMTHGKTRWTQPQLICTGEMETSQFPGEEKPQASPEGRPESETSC

In general, Kd refers to a measure of binding affinity in units of concentration. A lower Kd goes with higher affinity. Consider “Proleukin (Novartis, hIL-2) (from UniProt P60568 22-153)”, for which the Kd worked out at 0.0013 µM in assay [1] and 0.0917 µM in assay [2].
